The Human Domainome abundance scans (Beltran et al. 2025)
± gives the uncertainty stated by the source.

Assay: abundance fitness (aPCA) (normalised: wild type 0, dead -1); higher = more abundant; growth selection in yeast, the domain comes from the species named
Details: Homo sapiens

Substance	abundance fitness
BAG family molecular chaperone regulator 3 W26E, O95817	-0.885 ± 0.25
BAG family molecular chaperone regulator 3 W26F, O95817	0.4 ± 0.21
BAG family molecular chaperone regulator 3 W26G, O95817	-0.653 ± 0.17
BAG family molecular chaperone regulator 3 W26H, O95817	-0.362 ± 0.069
BAG family molecular chaperone regulator 3 W26I, O95817	-0.608 ± 0.34
BAG family molecular chaperone regulator 3 W26K, O95817	0.189 ± 0.081
BAG family molecular chaperone regulator 3 W26L, O95817	-0.583 ± 0.14
BAG family molecular chaperone regulator 3 W26M, O95817	-0.721 ± 0.2
BAG family molecular chaperone regulator 3 W26P, O95817	-0.892 ± 0.39
BAG family molecular chaperone regulator 3 W26Q, O95817	-0.641 ± 0.33
BAG family molecular chaperone regulator 3 W26R, O95817	-0.228 ± 0.1
BAG family molecular chaperone regulator 3 W26S, O95817	-0.381 ± 0.12
BAG family molecular chaperone regulator 3 W26T, O95817	-0.335 ± 0.074
BAG family molecular chaperone regulator 3 W26V, O95817	-0.467 ± 0.2
BAG family molecular chaperone regulator 3 W26Y, O95817	-0.326 ± 0.48
BAG family molecular chaperone regulator 3 W36A, O95817	0.844 ± 0.49
BAG family molecular chaperone regulator 3 W36E, O95817	1.43 ± 0.23
BAG family molecular chaperone regulator 3 W36G, O95817	0.48 ± 0.35
BAG family molecular chaperone regulator 3 W36K, O95817	1.09 ± 0.12
BAG family molecular chaperone regulator 3 W36R, O95817	0.623 ± 0.3
BAG family molecular chaperone regulator 3 W36S, O95817	1.56 ± 0.45
BAG family molecular chaperone regulator 3 W36T, O95817	1.25 ± 0.32
BAG family molecular chaperone regulator 3 W36V, O95817	1.02 ± 0.24
BAG family molecular chaperone regulator 3 W49C, O95817	-0.634 ± 0.29
BAG family molecular chaperone regulator 3 W49D, O95817	-0.572 ± 0.44

Substance	abundance fitness
BAG family molecular chaperone regulator 3 W49E, O95817	-0.221 ± 0.12
BAG family molecular chaperone regulator 3 W49F, O95817	-0.227 ± 0.42
BAG family molecular chaperone regulator 3 W49G, O95817	-0.748 ± 0.15
BAG family molecular chaperone regulator 3 W49L, O95817	-0.588 ± 0.081
BAG family molecular chaperone regulator 3 W49M, O95817	-0.21 ± 0.18
BAG family molecular chaperone regulator 3 W49N, O95817	-0.204 ± 0.34
BAG family molecular chaperone regulator 3 W49P, O95817	-0.72 ± 0.25
BAG family molecular chaperone regulator 3 W49Q, O95817	-0.764 ± 0.42
BAG family molecular chaperone regulator 3 W49R, O95817	-0.226 ± 0.1
BAG family molecular chaperone regulator 3 W49S, O95817	-0.436 ± 0.12
BAG family molecular chaperone regulator 3 W49V, O95817	-0.665 ± 0.13
SAFB-like transcription modulator D24A, Q9NWH9	-0.217 ± 0.033
SAFB-like transcription modulator D24C, Q9NWH9	-0.226 ± 0.036
SAFB-like transcription modulator D24E, Q9NWH9	-0.003 ± 0.038
SAFB-like transcription modulator D24F, Q9NWH9	-0.466 ± 0.033
SAFB-like transcription modulator D24G, Q9NWH9	-0.282 ± 0.03
SAFB-like transcription modulator D24H, Q9NWH9	-0.145 ± 0.034
SAFB-like transcription modulator D24I, Q9NWH9	-0.693 ± 0.035
SAFB-like transcription modulator D24K, Q9NWH9	-0.157 ± 0.034
SAFB-like transcription modulator D24M, Q9NWH9	-0.229 ± 0.036
SAFB-like transcription modulator D24N, Q9NWH9	-0.098 ± 0.034
SAFB-like transcription modulator D24P, Q9NWH9	-0.598 ± 0.033
SAFB-like transcription modulator D24Q, Q9NWH9	-0.076 ± 0.037
SAFB-like transcription modulator D24R, Q9NWH9	-0.335 ± 0.033
SAFB-like transcription modulator D24S, Q9NWH9	-0.149 ± 0.032

Substance	abundance fitness
SAFB-like transcription modulator D24T, Q9NWH9	-0.157 ± 0.033
SAFB-like transcription modulator D24V, Q9NWH9	-0.547 ± 0.033
SAFB-like transcription modulator D24W, Q9NWH9	-0.484 ± 0.039
SAFB-like transcription modulator D24Y, Q9NWH9	-0.433 ± 0.034
SAFB-like transcription modulator D29A, Q9NWH9	-0.681 ± 0.25
SAFB-like transcription modulator D29C, Q9NWH9	-0.854 ± 0.22
SAFB-like transcription modulator D29E, Q9NWH9	-0.5 ± 0.13
SAFB-like transcription modulator D29G, Q9NWH9	-0.725 ± 0.096
SAFB-like transcription modulator D29I, Q9NWH9	-1.09 ± 0.43
SAFB-like transcription modulator D29K, Q9NWH9	-1.06 ± 0.33
SAFB-like transcription modulator D29M, Q9NWH9	-0.081 ± 0.13
SAFB-like transcription modulator D29N, Q9NWH9	-0.483 ± 0.063
SAFB-like transcription modulator D29P, Q9NWH9	-0.656 ± 0.097
SAFB-like transcription modulator D29Q, Q9NWH9	-0.084 ± 0.07
SAFB-like transcription modulator D29S, Q9NWH9	-0.755 ± 0.19
SAFB-like transcription modulator D29T, Q9NWH9	-0.509 ± 0.12
SAFB-like transcription modulator D29V, Q9NWH9	-0.717 ± 0.09
SAFB-like transcription modulator D29W, Q9NWH9	-0.882 ± 0.18
SAFB-like transcription modulator D29Y, Q9NWH9	-0.677 ± 0.089
SAFB-like transcription modulator D40A, Q9NWH9	-0.2 ± 0.046
SAFB-like transcription modulator D40C, Q9NWH9	-0.594 ± 0.12
SAFB-like transcription modulator D40E, Q9NWH9	-0.318 ± 0.086
SAFB-like transcription modulator D40F, Q9NWH9	-1 ± 0.39
SAFB-like transcription modulator D40G, Q9NWH9	-0.277 ± 0.069
SAFB-like transcription modulator D40H, Q9NWH9	-0.614 ± 0.24

Substance	abundance fitness
SAFB-like transcription modulator D40I, Q9NWH9	-0.357 ± 0.092
SAFB-like transcription modulator D40K, Q9NWH9	-0.322 ± 0.099
SAFB-like transcription modulator D40L, Q9NWH9	-0.35 ± 0.066
SAFB-like transcription modulator D40M, Q9NWH9	-0.377 ± 0.067
SAFB-like transcription modulator D40Q, Q9NWH9	-0.486 ± 0.12
SAFB-like transcription modulator D40R, Q9NWH9	-0.354 ± 0.066
SAFB-like transcription modulator D40S, Q9NWH9	-0.148 ± 0.062
SAFB-like transcription modulator D40T, Q9NWH9	-0.375 ± 0.049
SAFB-like transcription modulator D40V, Q9NWH9	-0.417 ± 0.072
SAFB-like transcription modulator D62A, Q9NWH9	-0.386 ± 0.045
SAFB-like transcription modulator D62C, Q9NWH9	-0.198 ± 0.045
SAFB-like transcription modulator D62E, Q9NWH9	-0.397 ± 0.047
SAFB-like transcription modulator D62F, Q9NWH9	-0.526 ± 0.073
SAFB-like transcription modulator D62G, Q9NWH9	-0.534 ± 0.054
SAFB-like transcription modulator D62H, Q9NWH9	-0.253 ± 0.077
SAFB-like transcription modulator D62I, Q9NWH9	-0.339 ± 0.049
SAFB-like transcription modulator D62K, Q9NWH9	-0.531 ± 0.062
SAFB-like transcription modulator D62L, Q9NWH9	-0.46 ± 0.047
SAFB-like transcription modulator D62M, Q9NWH9	-0.69 ± 0.081
SAFB-like transcription modulator D62N, Q9NWH9	-0.089 ± 0.05
SAFB-like transcription modulator D62P, Q9NWH9	-0.474 ± 0.076
SAFB-like transcription modulator D62Q, Q9NWH9	-0.334 ± 0.079
SAFB-like transcription modulator D62R, Q9NWH9	-0.331 ± 0.052
